The text below walks through data of PMC7118729.

Broadly, the IC50 is the concentration at which inhibition is half-maximal. A lower IC50 goes with inhibition by little substance. In general, Ki refers to the equilibrium dissociation constant of an inhibitor or competing ligand from its target. Low values mean tighter binding, high ones weaker binding.

The target in the data set is Nsp15 endoribonuclease WT (SARS coronavirus, UniProt P0C6X7 6430-6775).

For UUUUUUUUUUUUUUUU (ssRNA) [rU16 (U16)], the IC50 came to 15 nM and the Ki was 2.3 nM.

With AAAAAAAAAAAAAAAA (ssRNA) [rA16], the IC50 came out at 53 nM and the Ki was found to be 7.6 nM.
